Test results taken from patent US20050058697A1, “Cell penetrating therapeutic agents” (priority 2001, published 2005).

How the values were obtained:
[1] = Association of AntpHD-Cw3 with liposomes (size exclusion chromatography, micro BCA protein assay, [3H]CHE lipid count); format: physicochemical; conditions: for coupling efficiency: 10 mol % DOGS-NTA-Ni
Method: Formulations were incubated with AntpHD-Cw3, free peptide was separated from the associated peptide using size exclusion chromatography, amount of peptide (□) and lipid (●) was then determined for each fraction as described herein.
DOPC/Chol liposomes containing 0% (O) and 10% (▪) DOGS-NTA-Ni were incubated with AntpHD-Cw3 at various peptide to liposome ratio for 30 min. at room temperature. The amount of peptide bound was determined after the incubation period as described herein. Data presented represent averaged results obtained from three liposome preparations ±S.E.M.
200 μg of dialyzed AntpHD-Cw3 was incubated with 10 μmoles liposomes as described for FIGS. 2-4 (v/v) for 30 min. at room temperature under rotary shaking. The mixture was then loaded on a Biogel™ A 1.5 m chromatography column in order to remove the free peptide from peptide that was incorporated into the liposome. The peptide/liposome ratio was determined by quantifying liposomal lipid using [^3H]CHE. Radioactivity was measured by liquid scintillation counting on a Can berra-Packard scintillation P counter (1900 TR Tri Carb™), using Pico-fluor 40™ scintillation cocktail. The peptide was quantified using the micro BCA™ protein assay kit, after dissolving the liposomes in 0.5% triton. BSA was used as the standard for this analysis.

| Compound | immune response to the lipid alone | coupling efficiency ([1]; initial ratio 60 AntpHD-Cw3/μmole lipid) | coupling efficiency ([1]; initial ratio 80 AntpHD-Cw3/μmole lipid) | saturation of AntpHD-Cw3 binding ([1]; liposomes with 10 mol % DOGS-NTA-Ni, FIG. 3) |
| --- | --- | --- | --- | --- |
| CCCCCCCC/C=C\CCCCCCCC(=O)OC[C@H](COC(=O)CCC(=O)NCCCCC(C(=O)O)N(CC(=O)[O-])CC(=O)[O-])OC(=O)CCCCCCC/C=C\CCCCCCCC.[Ni+2] (stereo partly shown) [DOGS-NTA-Ni, 1,2-Dioleoyl-sn-glycero-3-{[n(5-amino-1-carboxypentyl)iminodiaceticacid]succinyl} (Nickel Salt)] | little in the way of a detectable immune response |  |  |  |
| AntpHD-Cw3: Antennapedia homeodomain fused to Cw3 epitope (170-179), with 10-histidine tag and 13-amino acid linker (SEQ ID NO:1) |  | 80% | 65% | around 50 μg AntpHD-Cw3/μmole liposomal lipid |
